Experimental data published in article PMC11128199 (2024).

Biological target: S protein of WT SARS-CoV-2 (SARS-CoV-2, UniProt P0DTC2)
Experiment: ELISA

B1: 55A8 neutralizing antibody (IgG) (antibody, V domains shown)
VH: QVQLVQSGAEVKKPGSSVKVSCKASGGTFSSYSFIWVRQAPGQGLEWMGRIIPILGIANYAQKFQGRVTITADKSTTTAYMELSSLRSEDTAVYYCARGTEYGDYDVSHDWGQGTLVTVSS
VL: not shown
EC50: 0.0439 mg/L
